Assay results as given in US20250333461A1 (BEIJING QL BIOPHARMACEUTICAL, published 2025).

Target: human beta-Klotho (human, UniProt Q86Z14 1-1044)
Assay: cell-based or functional assay

B1: Native FGF21 (ligand)
chain: HPIPDSSPLLQFGGQVRQRYLYTDDAQQTEAHLEIREDGTVGGAADQSPESLLQLKALKPGVIQILGVKTSRFLCQRPDGALYGSLHFDPEACSFRELLLEDGYNVYQSEAHGLPLHLPGNKSPHRDPAPRGPARFLPLPGLPPALPEPPGILAPQPPDVGSSDPLSMVGPSQGRSPSYAS
B1 was tested, and the “FGF21 activity (EC50, nM); p-ERK levels, 1% HSA” value was 0.96 nM.
